B1: Peptide-115 (peptide)
peptide: [2Nal]RSG[Agb]NWVRW[Gly(cPent)]C
modifications: bridge N-12; not fully specified (N-terminus, C-terminus, bridges); also: C-terminus amide-bonded to a linker (not defined)
B2: Peptide-125 (peptide)
peptide: [2Nal]R[hCys]GRDW[hCys]RW[Gly(cPent)]C-NH2
modifications: linker 3-8 via acetone bridge (-S-CH2-CO-CH2-S-); bridge N-12; not fully specified (N-terminus, bridges)

Positions of bridges follow the written chain, without caps; N, C: chain ends. Non-standard residues stand in square brackets, D forms with d. No end group written: not given here. 2Nal = N[C@@H](Cc1ccc2ccccc2c1)C(=O)O; Gly(cPent) = N[C@H](C(=O)O)C1CCCC1; 4Pal = N[C@@H](Cc1ccncc1)C(=O)O; Agb = N=C(N)NCC[C@H](N)C(=O)O; Pen = CC(C)(S)[C@H](N)C(=O)O; Phg = N[C@H](C(=O)O)c1ccccc1; Tle = CC(C)(C)[C@H](N)C(=O)O; hCys = N[C@@H](CCS)C(=O)O

Thrombospondin human platelet (Calbiochem, 605225), sequence (P07996 19-1170 limits assumed): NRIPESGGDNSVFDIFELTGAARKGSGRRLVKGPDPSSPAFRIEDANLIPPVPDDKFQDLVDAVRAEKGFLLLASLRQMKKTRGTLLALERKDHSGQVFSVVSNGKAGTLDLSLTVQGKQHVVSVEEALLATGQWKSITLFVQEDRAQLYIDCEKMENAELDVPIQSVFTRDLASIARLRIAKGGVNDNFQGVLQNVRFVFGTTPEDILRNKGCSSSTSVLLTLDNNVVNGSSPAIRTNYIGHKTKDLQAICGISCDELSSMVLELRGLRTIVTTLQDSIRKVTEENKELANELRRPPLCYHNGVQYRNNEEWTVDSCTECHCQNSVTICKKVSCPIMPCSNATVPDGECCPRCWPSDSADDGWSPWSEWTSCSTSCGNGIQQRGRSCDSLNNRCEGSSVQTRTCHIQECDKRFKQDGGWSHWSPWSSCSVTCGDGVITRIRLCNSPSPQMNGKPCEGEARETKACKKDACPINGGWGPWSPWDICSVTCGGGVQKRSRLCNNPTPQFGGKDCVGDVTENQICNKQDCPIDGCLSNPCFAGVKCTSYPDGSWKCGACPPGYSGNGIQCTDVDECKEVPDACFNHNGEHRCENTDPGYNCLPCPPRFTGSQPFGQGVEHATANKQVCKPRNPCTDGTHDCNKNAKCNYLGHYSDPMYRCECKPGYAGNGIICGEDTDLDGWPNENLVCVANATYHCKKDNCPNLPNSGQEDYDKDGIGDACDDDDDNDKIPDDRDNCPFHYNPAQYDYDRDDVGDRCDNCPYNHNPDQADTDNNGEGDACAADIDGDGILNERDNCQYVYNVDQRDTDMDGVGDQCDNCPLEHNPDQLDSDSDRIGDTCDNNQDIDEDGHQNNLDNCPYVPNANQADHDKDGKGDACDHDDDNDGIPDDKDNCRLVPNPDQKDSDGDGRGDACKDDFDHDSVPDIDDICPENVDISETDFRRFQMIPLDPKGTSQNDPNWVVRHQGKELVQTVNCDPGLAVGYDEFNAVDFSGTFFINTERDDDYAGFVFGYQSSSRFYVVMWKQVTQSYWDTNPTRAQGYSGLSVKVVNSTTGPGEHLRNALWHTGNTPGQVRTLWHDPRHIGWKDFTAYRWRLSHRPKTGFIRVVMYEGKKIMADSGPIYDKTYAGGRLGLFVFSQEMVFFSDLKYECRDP

This test concerns the target Thrombospondin human platelet (Calbiochem, 605225) (human, UniProt P07996 19-1170). Kind of test: cell-based or functional assay.
Consider [2Nal]R[hCys]GRDWCRW[Gly(cPent)]C-NH2 (disulfide 3-8; bridge N-12; not fully specified (N-terminus, bridges)) [Peptide-129], for which the “IC50 for inhibition of cell adhesion (HUVEC to coated human TSP1)” value (“IC50 for inhibition of cell adhesion” for short) was 43.7 nM.
Next, [2Nal]RCGRDWCRW[Gly(cPent)]C-NH2 (bridge 3-8, N-12; not fully specified (N-terminus, bridges)) [Peptide-130]: 7.7 nM; [2Nal][Tle][hCys]GRNW[hCys]RW[Gly(cPent)]C-NH2 (disulfide 3-8; bridge N-12; not fully specified (N-terminus, bridges)) [Peptide-8]: 12.6 nM.
Next, [2Nal]R[hCys]G[Agb]NW[hCys]RW[Gly(cPent)]C-NH2 (disulfide 3-8; bridge N-12; not fully specified (N-terminus, bridges)) [Peptide-1]: 12.6 nM; [2Nal]RCGRDW[Pen]RW[Gly(cPent)]C-NH2 (disulfide 3-8; bridge N-12; not fully specified (N-terminus, bridges)) [Peptide-138]: 92.5 nM.
Next, [2Nal]R[hCys]G[Agb]NW[hCys][Phg]W[Gly(cPent)]C-NH2 (disulfide 3-8; bridge N-12; not fully specified (N-terminus, bridges)) [Peptide-4]: 33.8 nM.
For [2Nal][Agb][hCys]G[Agb]NW[hCys]RW[Gly(cPent)]C-NH2 (disulfide 3-8; bridge N-12; not fully specified (N-terminus, bridges)) [Peptide-2], the “IC50 for inhibition of cell adhesion” value was 20 nM.
On to [2Nal]R[hCys]GRDWCRW[Gly(cPent)]C-NH2 (bridge 3-8, N-12; not fully specified (N-terminus, bridges)) [Peptide-132], for which the “IC50 for inhibition of cell adhesion” value was 7 nM.
In the case of [2Nal]RCGRDWCRW[Gly(cPent)]C-NH2 (disulfide 3-8; bridge N-12; not fully specified (N-terminus, bridges)) [Peptide-128] it was 8.4 nM.
With [2Nal]R[hCys]GRDW[hCys]RW[Gly(cPent)]C-NH2 (bridge 3-8, N-12; not fully specified (N-terminus, bridges)) [Peptide-127], the “IC50 for inhibition of cell adhesion” value worked out at 11.6 nM.
In the case of B1 it was 17.5 nM; in that of [2Nal]R[hCys]GRNW[hCys]RWVC-NH2 (disulfide 3-8; bridge N-12; not fully specified (N-terminus, bridges)) [Peptide-12], 18.6 nM; in that of [2Nal]RCGRDW[hCys]RW[Gly(cPent)]C-NH2 (disulfide 3-8; bridge N-12; not fully specified (N-terminus, bridges)) [Peptide-126], 10.8 nM.
Regarding [2Nal]R[Pen]GRDWCRW[Gly(cPent)]C-NH2 (bridge 3-8, N-12; not fully specified (N-terminus, bridges)) [Peptide-137], the “IC50 for inhibition of cell adhesion” value worked out at 80.6 nM.
With [2Nal][Phg][hCys]G[Agb]NW[hCys]RW[Gly(cPent)]C-NH2 (disulfide 3-8; bridge N-12; not fully specified (N-terminus, bridges)) [Peptide-3], the “IC50 for inhibition of cell adhesion” value came out at 29.9 nM.
Next, [2Nal]R[Pen]GRDW[hCys]RW[Gly(cPent)]C-NH2 (disulfide 3-8; bridge N-12; not fully specified (N-terminus, bridges)) [Peptide-135]: 208 nM.
Turning to [2Nal]RCGRDW[Pen]RW[Gly(cPent)]C-NH2 (bridge 3-8, N-12; not fully specified (N-terminus, bridges)) [Peptide-139], the “IC50 for inhibition of cell adhesion” value came to 30.9 nM.
In the case of B2 it was 305 nM.
Next, [2Nal]R[hCys]G[Agb]NW[hCys][4Pal]W[Gly(cPent)]C-NH2 (disulfide 3-8; bridge N-12; not fully specified (N-terminus, bridges)) [Peptide-5]: 23.6 nM.
Next, [2Nal]R[Pen]GRDW[hCys]RW[Gly(cPent)]C-NH2 (bridge 3-8, N-12; not fully specified (N-terminus, bridges)) [Peptide-133]: 125 nM.
In the case of [2Nal]R[hCys]GRNW[hCys]VW[Gly(cPent)]C-NH2 (disulfide 3-8; bridge N-12; not fully specified (N-terminus, bridges)) [Peptide-7], the “IC50 for inhibition of cell adhesion” value was 31.1 nM.
Next, [2Nal]RCGRDW[hCys]RW[Gly(cPent)]C-NH2 (bridge 3-8, N-12; not fully specified (N-terminus, bridges)) [Peptide-131]: 14.2 nM.
Next, [2Nal]R[hCys]GRDW[Pen]RW[Gly(cPent)]C-NH2 (disulfide 3-8; bridge N-12; not fully specified (N-terminus, bridges)) [Peptide-134]: 102 nM; [2Nal]R[hCys]G[Agb]DW[hCys]RW[Gly(cPent)]C-NH2 (disulfide 3-8; bridge N-12; not fully specified (N-terminus, bridges)) [Peptide-9]: 22.4 nM.
In the case of [2Nal]R[hCys]GRDW[Pen]RW[Gly(cPent)]C-NH2 (bridge 3-8, N-12; not fully specified (N-terminus, bridges)) [Peptide-136] it was 162 nM; in that of [2Nal]R[hCys]GRDW[hCys]RW[Gly(cPent)]C-NH2 (disulfide 3-8; bridge N-12; not fully specified (N-terminus, bridges)) [Peptide-11], 26 nM.

The values are drawn from patent publication US20250228958A1, “TSP1 INHIBITOR” (Daiichi Sankyo Company, Limited, priority 2022, published 2025).
